Consider three molecules from PMC10938628 (Science Advances, 2022).

In data set [1] the target is intact CarHC (C-terminal domain of the photoreceptor CarH). Description: SEC. For orientation: SEC sorts molecules by how far they enter the pores of the column.
Data set [2] deals with the molecule itself. Description: SEC + other: dynamic light scattering.
The data set “SEC” deals with the molecule itself. Nature of the data set: SEC.

In the case of “intact CarHC (C-terminal domain of the photoreceptor CarH) (domain or fragment)”, the stoichiometry N in data set [1] is 4.

B1: CarHCC (Phe161-Leu276 of the photoreceptor CarH; C-terminal Rossmann-fold B12-binding segment of split CarHC) (domain or fragment, UniProt Q53W62 161-276, looked up)
chain: FPPGPPVLVTTPPGERHEIGAMLAAYHLRRKGVPALYLGPDTPLPDLRALARRLGAGTVVLSAVLSEPLRALPDGALKDLAPRVFLGGQGAGPEEARRLGAEYMEDLKGLAEALWL
In the case of B1, the “stoichiometry N” value in data set [2] was 4.

B2: reconstituted split CarHC complex (CarHCN + CarHCC held together by a cobalamin) (complex)
chain 1: PEDLGTGLLEALLRGDLAGAEALFRRGLRFWGPEGVLEHLLLPVLREVGEAWHRGEIGVAEEHLASTFLRARLQELLDLAGFPPGPP
chain 2: B1 chain
With B2, in the data set “SEC”, the “stoichiometry N” value came out at 4.

For orientation: stoichiometry N means a count of units in the complex or per binding partner.
